Reference: patent US20250353900A1 (HUMABS BIOMED, published 2025)

Legend:
[1] = molecular target: T1, Human complement component C1q (human, UniProt P02745 23-245; P02746 28-253; P02747 29-245); assay: BLI (Octet), IgG captured on anti-human Fab (CH1) sensors
T1 construct: also called human complement protein C1q

[2] = molecular target: T2, Recombinant human FcγRIIIa (V158) (human, UniProt P08637 17-208); assay: BLI (Octet), His-tagged FcγR on anti-penta-His sensors, mAb cross-linked with anti-F(ab')2
T2 construct: also called FcγRIIIa allele V158

[3] = molecular target: T3, Recombinant human FcγRIIIa (F158) (human, UniProt P08637 17-208); assay: as above
T3 construct: also called FcγRIIIa allele F158; FcγRIIAa allele F158

[4] = molecular target: T4, Recombinant human FcγRIIa (H131) (human, UniProt P12318 34-218); assay: as above
T4 construct: also called FcγRIIa allele H131
T4 sequence (looked up): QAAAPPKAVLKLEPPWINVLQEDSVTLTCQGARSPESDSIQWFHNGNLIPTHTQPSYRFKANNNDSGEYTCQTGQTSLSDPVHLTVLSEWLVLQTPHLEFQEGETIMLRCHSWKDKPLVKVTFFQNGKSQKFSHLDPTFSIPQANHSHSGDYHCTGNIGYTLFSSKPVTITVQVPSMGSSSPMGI

[5] = molecular target: HBV HBsAg of genotype A on engineered hepatitis D virus (hepatitis B virus genotype A); assay: cell-based or functional assay
[6] = molecular target: HBV HBsAg of genotype C on engineered hepatitis D virus (hepatitis B virus genotype C); assay: cell-based or functional assay

T2 sequence (P08637 17-208 F176V limits assumed): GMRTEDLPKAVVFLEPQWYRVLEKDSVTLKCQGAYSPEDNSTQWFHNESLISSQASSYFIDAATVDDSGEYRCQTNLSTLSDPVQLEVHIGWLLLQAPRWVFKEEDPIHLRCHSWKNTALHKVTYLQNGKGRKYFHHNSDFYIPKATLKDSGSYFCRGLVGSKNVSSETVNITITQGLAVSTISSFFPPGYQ
T3 sequence (P08637 17-208 limits assumed): as the sequence (P08637 17-208 F176V limits assumed) above, with V160F counted along it
T1 sequence (P02745 23-245 limits assumed, chain 1 of 3): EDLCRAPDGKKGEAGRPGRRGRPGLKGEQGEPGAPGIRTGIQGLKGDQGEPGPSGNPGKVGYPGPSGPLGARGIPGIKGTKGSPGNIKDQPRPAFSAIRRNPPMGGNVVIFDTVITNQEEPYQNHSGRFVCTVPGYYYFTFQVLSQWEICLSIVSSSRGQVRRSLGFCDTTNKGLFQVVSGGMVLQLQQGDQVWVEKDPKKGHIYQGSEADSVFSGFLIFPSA
T1 sequence (P02746 28-253 limits assumed, chain 2 of 3): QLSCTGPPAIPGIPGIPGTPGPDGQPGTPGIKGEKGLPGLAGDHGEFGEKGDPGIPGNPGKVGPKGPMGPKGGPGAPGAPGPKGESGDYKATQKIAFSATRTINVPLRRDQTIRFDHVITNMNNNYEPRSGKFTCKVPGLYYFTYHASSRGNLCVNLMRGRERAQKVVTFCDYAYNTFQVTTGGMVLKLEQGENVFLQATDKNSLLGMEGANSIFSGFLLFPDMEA
T1 sequence (P02747 29-245 limits assumed, chain 3 of 3): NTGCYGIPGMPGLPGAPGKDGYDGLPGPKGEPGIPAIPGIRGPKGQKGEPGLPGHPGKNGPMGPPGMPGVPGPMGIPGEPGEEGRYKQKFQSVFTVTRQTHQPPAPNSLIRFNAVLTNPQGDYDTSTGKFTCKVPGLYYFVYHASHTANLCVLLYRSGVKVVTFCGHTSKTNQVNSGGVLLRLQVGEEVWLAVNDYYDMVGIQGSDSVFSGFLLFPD

B1: HBC34-V35-MLNS-GAALIE (antibody, human IgG1, lambda)
heavy: ELQLVESGGGWVQPGGSQRLSCAASGRIFRSFYMSWVRQAPGKGLEWVATINQDGSEKLYVDSVKGRFTISRDNAKNSLFLQMNNLRVEDTAVYYCAAWSGNSGGMDVWGQGTTVSVSSASTKGPSVFPLAPSSKSTSGGTAALGCLVKDYFPEPVTVSWNSGALTSGVHTFPAVLQSSGLYSLSSVVTVPSSSLGTQTYICNVNHKPSNTKVDKKVEPKSCDKTHTCPPCPAPELLAGPSVFLFPPKPKDTLMISRTPEVTCVVVDVSHEDPEVKFNWYVDGVEVHNAKTKPREEQYNSTYRVVSVLTVLHQDWLNGKEYKCKVSNKALPLPEEKTISKAKGQPREPQVYTLPPSRDELTKNQVSLTCLVKGFYPSDIAVEWESNGQPENNYKTTPPVLDSDGSFFLYSKLTVDKSRWQQGNVFSCSVLHEALHSHYTQKSLSLSPGK
light: SYELTQPPSVSVSPGQTVSIPCSGDKLGNKNVAWFQHKPGQSPVLVIYEVKYRPSGIPERFSGSNSGNTATLTISGTQAMDEAAYFCQTFDSTTVVFGGGTRLTVLGQPKAAPSVTLFPPSSEELQANKATLVCLISDFYPGAVTVAWKADSSPVKAGVETTTPSKQSNNKYAASSYLSLTPEQWKSHRSYSCQVTHEGSTVEKTVAPTECS
B1: no binding (tested: 3 µg/ml of purified human C1q) [1]; binds [2]; binds [3]. The binding result [4] was “binds”, the “neutralization EC50, HDV engineered to express HBV HBsAg” value [5] was 2.34 ng/mL and the “neutralization EC50, HDV engineered to express HBV HBsAg” value [6] was 0.92 ng/mL.
